In general, Kd refers to the concentration at which binding is half-saturated. Usually koff stands for the rate constant with which the complex falls apart. Broadly, the kon is the rate constant with which the complex forms. The EC50 is the concentration giving half of the maximal effect.

From US20250263490A1 (VIB VZW, published 2025) come the findings set out here.

Experiment [1] concerns the target T1, recombinant human domain 1-3His6 of the cation-independent mannose-6-phosphate receptor (human, UniProt P11717 41-467).
T1 construct: Biotinylated (NHS-PEG4-biotin) for BLI; Glycosylated; also called hDom1-3His6; hCI-M6PRD1-D3
Briefly: BLI exp 1, dissoc pH 5. As to the method: (§1) For each of the 11 anti-CI-M6PR VHHs, a biolayer interferometry (BLI) experiment was performed in which the hDom₁₋₃His₆ was biotinylated and coupled to streptavidin biosensor tips. Afterwards, the tips were incubated with serially diluted VHHs during the association phase and dissociation was performed at pH 7.4. Similarly, dissociation was performed at pH 7.0, pH 6.0 and pH 5.0 as well after regeneration of the biosensor tips. […] The anti-CI-M6PR antibody (clone 2G11) and GBP were used as positive and negative controls, respectively.
(§2) Analysis of the binding kinetics was performed using an Octet Red96 (FortéBio) device with Streptavidin SA Biosensor tips (VWR 733-2145). Therefore, 1 mL of human domain₁₋₃His₆ (0.5 mg/mL in 50 mM MES, 150 mM NaCl, pH 6.5) was incubated at room temperature for 30 minutes with EZ-Link™ NHS-PEG4-Biotin (1 mg) (Thermo Fischer A39259) and NaHCO₃ (100 mM). Biotinylated human domain₁₋₃His₆ was purified using a Zeba spin desalting Column™ (7K MWCO, 2 mL, Thermo Fischer 89890) and 1 μg/mL was used for immobilization on the Streptavidin SA Biosensor tips. The loaded tips were dipped into a particular anti-CI-M6PR VHH solution, serially diluted in kinetics buffer (0.2M NaH₂PO₄, 0.1M Na⁺ citrate, 0.01% BSA, 0.002% Tween20, pH 7.4). This was followed by dissociation of the particular anti-CI-M6PR VHH in kinetics buffer of pH 7.4, followed by regeneration in Glycine (10 mM, pH 3) and neutralisation. Same cycle was repeated but the dissociation was performed at pH 7.0, 6.0, 5.0, 4.5 and 4.0. A reference well and reference sensors were subtracted from ligand sensors afterwards and Savitsky-Golay filtering was applied on the data. Fitting of the data was performed using a 1:1 model, grouped per pH of dissociation.

The target of experiment [2] is T1, recombinant human domain 1-3His6 of the …. Briefly: BLI exp 1, dissoc pH 6. As to the method:
as §1, §2

Experiment [3] shares this target. Briefly: BLI exp 1, dissoc pH 7. As to the method:
as §1, §2

The target is the same in experiment [4]. The experiment can be described thus: BLI exp 1, dissoc pH 7.4. Here is the method: as §1, §2
Experiment [5] has the same target. Briefly: ELISA on coated antigen, 1st of 2 repeats. Here is the method:
FIGS. 4A-4B. Affinity of anti-CI-M6PR VHHs for recombinant human CI-M6PR Domain 1-3His₆ determined by ELISA. A & B. Measurements for each of the 11 anti-CI-M6PR VHHs in serial dilution binding to the coated human CI-M6PR Domain 1-3His₆ antigen. Detection was performed using an anti-VHH antibody coupled to HRP, and measured as the absorbance of the TMB substrate at 450 nm, correlating to the amount of bound VHH as plotted at the Y-axis. The Log₁₀ concentrations of the serially diluted VHHs were plotted at the X-axis. […] A & B represent replicates but using a different concentration of human CI-M6PR Domain 1-3His₆ (in (FIG. 4A): 0-0.75 μM and in (FIG. 4B): 0-1 μM).
We evaluated the affinity of the VHHs against the hDom₁₋₃His₆ using ELISA. Coated hDom₁₋₃His₆ was incubated with serially diluted VHH that was afterwards detected using an anti-VHH antibody, coupled to HRP.
A general note: ELISA stands for enzyme-linked immunosorbent assay.

In experiment [6] the target is T2, recombinant mouse domain 1-3His6 of CI-M6PR (mouse, UniProt Q07113 36-418).
T2 construct: Genbank NM_010515.2); Range includes the signal peptide; also called mDom1-3His6; mCI-M6PRD1-D3
T2 sequence (Q07113 other isoform, or with tags, fused parts or gaps): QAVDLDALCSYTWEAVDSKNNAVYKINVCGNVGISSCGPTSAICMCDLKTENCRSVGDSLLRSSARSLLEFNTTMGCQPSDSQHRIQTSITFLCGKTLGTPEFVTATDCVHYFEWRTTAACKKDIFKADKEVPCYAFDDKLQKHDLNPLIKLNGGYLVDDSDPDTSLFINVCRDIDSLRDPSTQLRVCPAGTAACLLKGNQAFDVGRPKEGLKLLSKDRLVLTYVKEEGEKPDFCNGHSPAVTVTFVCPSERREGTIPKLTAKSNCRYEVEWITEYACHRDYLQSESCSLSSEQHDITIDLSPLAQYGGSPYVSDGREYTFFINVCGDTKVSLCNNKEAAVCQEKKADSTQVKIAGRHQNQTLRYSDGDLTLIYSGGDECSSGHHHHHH
Briefly: ELISA: coated mouse CI-M6PR Domain 1-3His6, serially diluted VHH, anti-VHH-HRP, TMB, Abs 450 nm; sigmoidal regression [table at the right]. Here is the method: FIGS. 5A-5B. Affinity of anti-CI-M6PR VHHs for recombinant mouse CI-M6PR Domain 1-3His₆ determined by ELISA. (FIG. 5A) Measurement for each of the 11 anti-CI-M6PR VHHs in serial dilution binding to the coated mouse antigen. Detection was performed using an anti-VHH antibody coupled to HRP, and measured as the absorbance of the TMB substrate at 450 nm, correlating to the amount of bound VHH as plotted at the Y-axis. The Log₁₀ concentrations of the serially diluted VHHs were plotted at the X-axis.
To evaluate the cross-reactivity of the anti-CI-M6PR nanobodies between the human and mouse CI-M6PR domain 1-3His₆ antigen, ELISA was performed with the eleven serially diluted anti-CI-M6PR nanobodies. […] By performing sigmoidal regression on the derived absorbance curves, half-maximal effective concentration (EC₅₀) values of each VHH were acquired, representing the required concentration to occupy 50% of the coated antigen. As a negative control, GBP was included in the assay.

Where only a bound is given, the exact number is not on record here.

B1: anti-CI-M6PR VHH7 (VHH)
VHH: QVQLQESGGGLVQPGGSLRLSCAASGIIFSDNRMDWYRQAPGKQREWVATLASYGWKTYADSVKGRFTISRDNTKNTVYLRMNSLKPEDTAVYYCKASSPVLNDIWGQGTQVTVSS
notes: His6-tagged (Pichia pastoris)
Take B1: the dissociation constant Kd in experiment [1] is 11.7 nM; in experiment [2], 8.75 nM; in experiment [3], 8.08 nM; in experiment [4] it was 10.8 nM. For the same molecule, the koff in experiment [1] came to 0.0542 s⁻¹; in experiment [2] it was 0.0321 s⁻¹; in experiment [3] it was 0.00698 s⁻¹; in experiment [4] it was 0.00999 s⁻¹. For the same molecule, the on-rate constant (kon) is 4.62e+06 M⁻¹ s⁻¹ in experiment [1], 3.67e+06 M⁻¹ s⁻¹ in experiment [2], 864000 M⁻¹ s⁻¹ in experiment [3] and 924000 M⁻¹ s⁻¹ in experiment [4]. Moreover, in experiment [5], the EC50 came out at 0.0109 nM.

B2: anti-CI-M6PR VHH3 (VHH)
VHH: QVQLQESGGGLVQPGGSLRLSCAAFGLNFKNFDMIWFRQAPGEERDIVAAISSSSSTIWYEDSVKGRFTISRDNAKNTVYLQMNSLKPEDTAVYYCAAALTSWRRPDYWGQGTQVTVSS
notes: His6-tagged; made in Pichia pastoris
Consider B2, for which the dissociation constant (Kd) is 1.36 nM in experiment [1], 0.27 nM in experiment [2], 0.269 nM in experiment [3] and at most 0.000117 nM in experiment [4]. Also, the koff is 0.00149 s⁻¹ in experiment [1], 0.000851 s⁻¹ in experiment [2], 0.000604 s⁻¹ in experiment [3] and at most 1e-07 s⁻¹ in experiment [4]. Besides, the kon came out at 1.1e+06 M⁻¹ s⁻¹ in experiment [1], 3.16e+06 M⁻¹ s⁻¹ in experiment [2], 2.24e+06 M⁻¹ s⁻¹ in experiment [3] and 853000 M⁻¹ s⁻¹ in experiment [4]. Further, the EC50 in experiment [5] came to 0.0379 nM; in experiment [6] it was 670 nM.

B3: anti-CI-M6PR VHH9 (VHH)
VHH: QVQLQESGGGLVQAGGSLRLSCAASGTILSIKTMGWYRQAPGKEREWVATITSSSIPMYADSVKGRFTISRDDAKNTVYLQMNSLKPEDTGVYYCNAPWTDYWGQGTQVTVSS
notes: as for B2
In the case of B3, the dissociation constant (Kd) in experiment [1] came to 84.1 nM; in experiment [2], 0.674 nM; in experiment [3] it was 0.476 nM; in experiment [4], 0.282 nM. The koff stood at 0.0496 s⁻¹ in experiment [1], 0.00122 s⁻¹ in experiment [2], 0.00051 s⁻¹ in experiment [3] and 0.000444 s⁻¹ in experiment [4]. The association rate constant (kon) worked out at 590000 M⁻¹ s⁻¹ in experiment [1], 1.81e+06 M⁻¹ s⁻¹ in experiment [2], 1.07e+06 M⁻¹ s⁻¹ in experiment [3] and 1.57e+06 M⁻¹ s⁻¹ in experiment [4]. Also, the 50% effective concentration (EC50) in experiment [5] came out at 0.00642 nM; in experiment [6], 2750 nM.

B4: anti-CI-M6PR VHH6 (VHH)
VHH: QVQLQESGGGLVQAGGSLRLSCAVSGSISSIGGMGWFRQAPGKQREFVAVILNNSGMTSYADSVKGRFTISRGNSKNTMYLQMNSLKPEDTAVYYCNYSGYWGQGTQVTVSS
notes: His6-tagged; made in E. coli
Regarding B4, the dissociation constant Kd in experiment [1] is 8.5 nM; in experiment [2] it was 1.56 nM; in experiment [3], 2.65 nM; in experiment [4], 3.35 nM. For the same molecule, the off-rate constant (koff) in experiment [1] came to 0.0156 s⁻¹; in experiment [2] it was 0.00242 s⁻¹; in experiment [3], 0.00227 s⁻¹; in experiment [4], 0.00352 s⁻¹. Besides, the kon is 1.84e+06 M⁻¹ s⁻¹ in experiment [1], 1.55e+06 M⁻¹ s⁻¹ in experiment [2], 856000 M⁻¹ s⁻¹ in experiment [3] and 1.05e+06 M⁻¹ s⁻¹ in experiment [4]. Further, the half-maximal effective concentration (EC50) in experiment [5] stood at 84.2 nM; in experiment [6] it was 9750 nM.

B5: anti-CI-M6PR VHH5 (VHH)
VHH: QVQLQESGGGLVQAGGSLKLSCAAAGRTFSRLAMGWFRQAPGKEREFVAAISENGDSIHYSDSVKGRFAVSRDNAKNTVYLQMNSLKPEDTAIYYCAADRAAYYCSGSGCYPSRAPAAASYDYWGQGTQVTVSS
notes: His6-tagged; made in Pichia pastoris, later also in E. coli WK6
Consider B5, for which the Kd was found to be 5.76 nM in experiment [1], 0.0111 nM in experiment [2], 0.346 nM in experiment [3] and 0.0903 nM in experiment [4]. The koff came to 0.00861 s⁻¹ in experiment [1], 1.52e-05 s⁻¹ in experiment [2], 0.000412 s⁻¹ in experiment [3] and 0.000124 s⁻¹ in experiment [4]. Also, the on-rate constant (kon) was found to be 1.5e+06 M⁻¹ s⁻¹ in experiment [1], 1.38e+06 M⁻¹ s⁻¹ in experiment [2], 1.19e+06 M⁻¹ s⁻¹ in experiment [3] and 1.37e+06 M⁻¹ s⁻¹ in experiment [4]. Also, the EC50 worked out at 0.0816 nM in experiment [5] and 562 nM in experiment [6].

B6: anti-CI-M6PR VHH4 (VHH)
VHH: QVQLQESGGGLVQAGGSLRLSCAASGRTFSNYVMGWFRQAPGKEREFVGSISQGGKMTYYPDSVKGRFTISRDNAKNTMYLQMDGLKPEDTAVYYCAVSRGYPMVRVSEVDYWGQGTQVTVSS
notes: as for B2
For B6, the Kd amounted to 10 nM in experiment [1], 3.18 nM in experiment [2], 2.2 nM in experiment [3] and 2.33 nM in experiment [4]. Also, the dissociation rate constant (koff) in experiment [1] worked out at 0.00729 s⁻¹; in experiment [2], 0.00101 s⁻¹; in experiment [3] it was 0.00126 s⁻¹; in experiment [4], 0.00133 s⁻¹. For the same molecule, the kon in experiment [1] stood at 729000 M⁻¹ s⁻¹; in experiment [2], 316000 M⁻¹ s⁻¹; in experiment [3], 572000 M⁻¹ s⁻¹; in experiment [4] it was 571000 M⁻¹ s⁻¹. Besides, the EC50 in experiment [6] was 873 nM.

B7: anti-CI-M6PR VHH1 (VHH)
VHH: QVQLQESGGGLVQPGGSLRLSCVASGFTFDRYWMNWLRQIPGKEIEWVSTINTGGTGTYYDDSVKGRFSISRDDAKNTLYLTMNSLKTEDTAVYYCARGATYYRGNSAIRGQGTQVTVSS
notes: as for B5
With B7, the Kd in experiment [1] amounted to 24.7 nM; in experiment [2], 12.7 nM; in experiment [3], 6.05 nM; in experiment [4], 7.44 nM. Also, the koff in experiment [1] was around 0.0988 s⁻¹; in experiment [2] it was around 0.0165 s⁻¹; in experiment [3], around 0.00756 s⁻¹; in experiment [4], around 0.00606 s⁻¹. In addition, the kon in experiment [1] worked out at 4e+06 M⁻¹ s⁻¹; in experiment [2] it was 1.3e+06 M⁻¹ s⁻¹; in experiment [3], 1.25e+06 M⁻¹ s⁻¹; in experiment [4] it was 814000 M⁻¹ s⁻¹. The concentration for a half-maximal effect (EC50) in experiment [5] amounted to 1.78 nM; in experiment [6], 355 nM.

B8: anti-CI-M6PR VHH8 (VHH)
VHH: QVQLQESGGGLVQAGGSLRLSCEASGRTFNTYNWGWFRQAPGKEREFVAAIRWSSSKTSYADSVKGRFTISRDNAKNTIYLQMNSLKPEDTAVYYCAASIVDFTTNPSHFGSWGQGTQVTVSS
notes: His6-tagged (Pichia pastoris)
Regarding B8, the Kd in experiment [1] came to 109 nM; in experiment [2], 12.7 nM; in experiment [3] it was 6.45 nM; in experiment [4], 1.69 nM. Further, the off-rate (koff) in experiment [1] stood at 0.0328 s⁻¹; in experiment [2], 0.00293 s⁻¹; in experiment [3], 0.00368 s⁻¹; in experiment [4], 0.000787 s⁻¹. The kon amounted to 302000 M⁻¹ s⁻¹ in experiment [1], 231000 M⁻¹ s⁻¹ in experiment [2], 570000 M⁻¹ s⁻¹ in experiment [3] and 465000 M⁻¹ s⁻¹ in experiment [4]. Besides, the results for the EC50 in experiment [5] and in experiment [6] were 0.11 nM and 595 nM, respectively.
